Residue numbers refer to the chain shown, from its start. Read-outs that look alike come from different tables or passages of the source.
B1: Fab 6 (Fab, V domains shown)
VH: EVQLVESGGGLVQPGGSLRLSCAASGFNVYYYYIHWVRQAPGKGLEWVASISPYYGYTSSYADSVKGRFTISADTSKNTAYLQMNSLRAEDTAVYYCARWSYDQSMSYKSGMDYWGQGTLVTVSS
VL: DIQMTQSPSSLSASVGDRVTITCRASQSVSSAVAWYQQKPGKAPKLLIYSASSLYSGVPSRFSGSRSGTDFTLTISSLQPEDFATYYCQQYSYSLVTFGQGTKVEIKR
B2: Fab 20 (Fab, V domains shown)
VH: EVQLVESGGGLVQPGGSLRLSCAASGFNISYSSIHWVRQAPGKGLEWVASIYSYSGYTSYADSVKGRFTISADTSKNTAYLQMNSLRAEDTAVYYCARSYWYHVGSWHYTGMDYWGQGTLVTVSS
VL: B1 VL with Y91S, Y93S, V96I

Legend:
Assay in all cases: SPR
[1] = biological target: T1, C-terminal domain of Bundibugyo Ebola virus Nucleoprotein (NP^Ct)
[2] = biological target: T2, C-terminal domain of Zaire Ebola virus Nucleoprotein (NP^Ct) (UniProt P18272 641-739)
[3] = biological target: T3, C-terminal domain of Tai Forest Ebola virus Nucleoprotein (NP^Ct)
[4] = biological target: C-terminal domain of Reston Ebola virus Nucleoprotein (NP^Ct) (UniProt Q8JPY1 641-739)
[5] = biological target: T2, C-terminal domain of Zaire Ebola virus …; remark: listed apart in the source
[6] = biological target: T1, C-terminal domain of Bundibugyo Ebola …; remark: listed apart in the source
[7] = biological target: C-terminal domain of Sudan Ebola virus Nucleoprotein (NP^Ct) (UniProt Q9QP77 641-738)
[8] = biological target: T3, C-terminal domain of Tai Forest Ebola …; remark: listed apart in the source

Binder	Kd [1]	Kd [2]	Kd [3]	Kd [4]	Kd [5]	Kd [6]	Kd [7]	Kd [8]
B1	3.95 nM	0.687 nM	4.68 nM					
B2				11.7 nM	4.14 nM	16.6 nM	20.3 nM	3.05 nM
